Entries after “also recorded” stand apart in the source; their conditions may differ.
Legend:
[1] = molecular target: T1, human Axl (rhAxl-Fc chimera) (Homo sapiens, UniProt P30530); assay: Biacore binding analysis on immobilised human Axl; conditions: 10 μg/mL in HBS-EP, 25° C.
T1 construct: Soluble recombinant antigens corresponding to the extracellular domains of members of the human TAM receptor family; Fc; purchased R&D Systems 154-AL
Experimental: All binding experiments were performed using Biacore 3000 instrument (GE Healthcare) at 25° C. Soluble recombinant antigens corresponding to the extracellular domains of members of the human TAM receptor family, Axl (rhAxl-Fc chimera; R&D Systems, Cat. no. 154-AL), Mer (rhMer-Fc chimera; R&D Systems, Cat. no. 891-MR) and Tyro3 (rhTyro3/Dtk-Fc chimera; R&D Systems, Cat. no. 859-DK) were immobilized on the surface of CM5 sensor chip using amine coupling at the surface density of 393.0, 303.6 and 364.0 resonance units (RU), respectively. The Biacore run was performed in an automatic mode using Binding analysis wizard. Samples containing MAb 10G5 at concentration 10 μg/mL in HBS-EP buffer (GE Healthcare) were injected over the surfaces with immobilized antigens at flow rate of 30 μL/min for 3 min (association) followed by 5 min dissociation.
The binding experiments were performed using Biacore 3000 instrument (GE Healthcare) at 25° C. The soluble recombinant antigens corresponding to human Axl (rhAxl-Fc chimera; R&D Systems, Cat. no. 154-AL), mouse Axl (rmAxl-Fc chimera; R&D Systems, R&D Systems; Cat. no. 854-AX) and human Tyro3 (rhTyro3/Dtk-Fc chimera; R&D Systems, Cat. no. 859-DK) were immobilized on the surface of CM5 sensor chip using amine coupling at the surface density of 1,308.0, 2,115.9 and 1,429.0 RU, respectively. The Biacore runs were performed in an automatic mode using Binding analysis wizard.
The sample containing MAb 10G5 or recombinant mouse (rm) Axl-ligand Gas6 (R&D Systems, Cat. no. 986-GS/CF) at concentration 10 μg/mL in HBS-EP buffer (GE Healthcare) was injected over the surfaces with immobilized antigens at flow rate of 30 μL/min for 3 min (association) followed by 5 min dissociation.
(§1) The sequence of Axl receptor from cynomolgus monkey (Macaca fascicularis; SEQ ID NO: 27) was retrieved from WO2009062690A1. Based on the sequence, recombinant extracellular domain of cyno-Axl was generated by transient expression in CHO cells as a fusion protein with human Fc. The recombinant cyno-Axl-Fc was purified to homogeneity using Protein A-Sepharose (GE Healthcare). The binding experiments were performed using Biacore 3000 instrument (GE Healthcare) at 25° C. The soluble recombinant antigens corresponding to human Axl (rhAxl-Fc chimera; R&D Systems, Cat. no. 154-AL) and cyno-Axl were immobilized on the surface of CM5 sensor chip using amine coupling at the surface density of 775 and 880 RU, respectively. The Biacore runs were performed in an automatic mode using Binding analysis wizard.
The sample containing MAb 10G5 or human Axl-specific MAb 5F11 (control) at concentration 10 μg/mL in HBS-EP buffer (GE Healthcare) was injected over the surfaces with immobilized antigens at flow rate of 30 μL/min for 3 min (association) followed by 5 min dissociation. […]

cyno-Axl (cyno-Axl-Fc) = assay: Biacore binding analysis on immobilised cynomolgus Axl; set-up: species or system cynomolgus monkey (Macaca fascicularis); conditions: 10 μg/mL in HBS-EP, 25° C.
cyno-Axl (cyno-Axl-Fc), sequence (as listed by the source): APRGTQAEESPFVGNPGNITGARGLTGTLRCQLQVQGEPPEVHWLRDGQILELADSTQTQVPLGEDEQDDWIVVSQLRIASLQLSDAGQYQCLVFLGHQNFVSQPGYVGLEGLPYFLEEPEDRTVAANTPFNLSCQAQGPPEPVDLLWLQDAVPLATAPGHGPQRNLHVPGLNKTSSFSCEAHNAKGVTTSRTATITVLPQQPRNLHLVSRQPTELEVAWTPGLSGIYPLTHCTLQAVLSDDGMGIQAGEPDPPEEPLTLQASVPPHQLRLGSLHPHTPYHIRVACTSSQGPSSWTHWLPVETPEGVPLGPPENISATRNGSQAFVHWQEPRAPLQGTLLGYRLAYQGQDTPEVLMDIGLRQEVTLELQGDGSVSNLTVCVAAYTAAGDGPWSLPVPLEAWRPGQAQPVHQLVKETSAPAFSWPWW
Experimental: as §1
The sample containing MAb 10G5 or human Axl-specific MAb 5F11 (control) at concentration 10 μg/mL in HBS-EP buffer (GE Healthcare) was injected over the surfaces with immobilized antigens at flow rate of 30 μL/min for 3 min (association) followed by 5 min dissociation.

[2] = molecular target: T2, rhAxl-Fc (binding of Gas6 / MAB154) (Homo sapiens, UniProt P30530); assay: Biacore competitive binding study, MAb 10G5 as first sample (Example 6); conditions: rhAxl-Fc saturated with 10G5 (160 nM), second sample 25 μg/mL
T2 construct: Fc
Experimental: A competitive binding study was performed using Biacore 3000 instrument (GE Healthcare) and Binding Analysis wizard with several cycles of two samples injection. As a first sample, a saturating concentration of MAb 10G5 (160 nM or 24 μg/mL) was injected over the surface of a CM5 sensor chip coated with rhAxl-Fc (using amine coupling) for 3 min at flow rate of 30 μL/min followed by 2.5 min stabilization (HBS-EP buffer alone) before the injection of the second sample. The following second samples were used: recombinant human (rh) Gas6 (R&D Systems, Cat. no. 885-GS), recombinant mouse (rm) Gas6 (R&D Systems, Cat. no. 986-GS/CF) and a panel of anti-Axl antibodies, such as MAB154 (R&D Systems, Cat. no. MAB154), and 10G5; all at concentration 25 μg/mL. The second sample was injected for 3 min, followed by 2.5 min stabilization (buffer alone) and regeneration of the surface by 30 sec injection of a regeneration solution (10 mM HCl, 1 M NaCl) at flow rate 50 μL/min.

Hu-Axl-Fc = molecular target: T3, Hu-Axl-Fc (Homo sapiens, UniProt P30530); assay: Biacore competition binding c10G5 versus YW327.6S2-var (Example 21); conditions: 666.7 nM each, first and second sample
T3 construct: Fc
Experimental: Injections: • Use Flow Cell(s): 2 with 1 as reference • Flow Rate: 30 (μL/min) • Number of Injections: 2 • First Sample: • Injection Time: 3 (min) • Wait After Injection: 2.5 (min) • Second Sample: • Injection Time: 3 (min) • Wait After Injection: 2.5 (min)
The competitive binding analysis was performed by injecting a first sample (MAbs c10G5 or YW327.6S2-var) at a concentration sufficient to reach plateau within 1-2 min followed by injection of MAb YW327.6S2-var as a second sample (FIG. 21A).
In a second part of the of experiment, the antibody YW327.6S2-var was injected as a first sample followed by injection of either antibody YW327.6S2-var or c10G5 as a second sample (FIG. 21B).

| Competition between 10G5 and YW327.6S2 for binding to Axl (Hu-Axl-Fc) | Molecule | Binding to human Axl [1] | Binding to Axl from cynomolgus monkey (cyno-Axl (cyno-Axl-Fc)) | Competition with MAB154 for Axl binding [2] | Inhibition of Gas6 (human and murine) binding to rhAxl [2] |
| --- | --- | --- | --- | --- | --- |
| does not compete | murine 10G5: mouse monoclonal anti-human Axl antibody from hybridoma WR-10G5-E5; VH SEQ ID NO: 28, VL SEQ ID NO: 29 (antibody, listed as Mus musculus, V domains shown, (1)..(118) Mus musculus 10G5 VH domain; (1)..(112) Mus musculus 10G5 VL domain) VH: QVQLQQSGAELVRPGASVKLSCKASGYSFTDFYINWVRQRPGQGLEWIARIFPGGDNTYYNEKFKGKATLTAEESSSTAYIQLSSLTSEDSAVYFCARRGLYYAMDYWGQGISVTVSS VL: DVLMTQTPLSLPVSLGDQASISCRSSQSLVHSNGIPYLHWYLQKPGQSPKLLIYRVSNRFSGVPDRFSGSGSGTDFTLKISRVEAEDLGVYFCSQGTHVPPTFGGGTKLEIK | bind strongly; also recorded: specific binding; also recorded: strong and specific interaction | bind strongly; also recorded: strong and specific interaction | did no inhibit; also recorded: did not compete | cannot be bound; also recorded: inhibited |
| – | c10G5: chimeric (mouse variable/human constant) IgG1 antibody with the 10G5 VH and VL (antibody, V domains shown) VH: QVQLQQSGAELVRPGASVKLSCKASGYSFTDFYINWVRQRPGQGLEWIARIFPGGDNTYYNEKFKGKATLTAEESSSTAYIQLSSLTSEDSAVYFCARRGLYYAMDYWGQGISVTVSS VL: DVLMTQTPLSLPVSLGDQASISCRSSQSLVHSNGIPYLHWYLQKPGQSPKLLIYRVSNRFSGVPDRFSGSGSGTDFTLKISRVEAEDLGVYFCSQGTHVPPTFGGGTKLEIK | binds immobilized Axl with profiles very similar to the binding profiles of the corresponding mouse antibody | – | – | – |
